Reference: patent publication US20170037111A1, “Novel peptides and combination of peptides for use in immunotherapy against ovarian cancer and other cancers” (immatics biotechnologies GmbH, priority 2015, published 2017)

Biological target: HLA-A*02:01 (Homo sapiens, UniProt P04439, D140Y/D185E/D98H/E176V/E277Q/G131W/G231S/I119V/I121R/I166T/I218V/L300P/L318F/N151K/N90K/P208A/P217A/Q86G/Q94H/R138H/R169H/T345S)
Experiment: MHC binding assay (UV-ligand exchange, β2m ELISA, peptide exchange yield)
Details: MHC class I binding score; binding to HLA-A*02:01 ranged by peptide exchange yield (UV-ligand exchange, β2m ELISA)
Description: Candidate peptides for T cell based therapies according to the present invention were further tested for their MHC binding capacity (affinity). The individual peptide-MHC complexes were produced by UV-ligand exchange, where a UV-sensitive peptide is cleaved upon UV-irradiation, and exchanged with the peptide of interest as analyzed. Only peptide candidates that can effectively bind and stabilize the peptide-receptive MHC molecules prevent dissociation of the MHC complexes. To determine the yield of the exchange reaction, an ELISA was performed based on the detection of the light chain (β2m) of stabilized MHC complexes. The assay was performed as generally described in Rodenko et al. (Rodenko et al., 2006).
96 well MAXISorp plates (NUNC) were coated over night with 2 ug/ml streptavidin in PBS at room temperature, washed 4× and blocked for 1h at 37° C. in 2% BSA containing blocking buffer. […] Peptide-MHC monomers of the UV-exchange reaction were diluted 100 fold in blocking buffer. Samples were incubated for 1h at 37° C., washed four times, incubated with 2 ug/ml HRP conjugated anti-β2m for 1h at 37° C., washed again and detected with TMB solution that is stopped with […]. Absorption was measured at 450 nm. Candidate peptides that show a high exchange yield (preferably higher than 50%, most preferred higher than 75%) are generally preferred for a generation and production of antibodies or fragments thereof, and/or T cell receptors or fragments thereof, as they show sufficient avidity to the MHC molecules and prevent dissociation of the MHC complexes.

Peptide exchange, ″+++″ (≧50% = +++):
132 (LLVEQPPLAGV; listed as Homo sapiens) [compound 132]
134 (YLQELIFSV; listed as Homo sapiens) [compound 134]
135 (ALSEVDFQL; listed as Homo sapiens) [compound 135]
136 (YLADPSNLFVV; listed as Homo sapiens) [compound 136]
138 (YQYPRAILSV; listed as Homo sapiens) [compound 138]
139 (SVMEVNSGIYRV; listed as Homo sapiens) [compound 139]
142 (FLFATPVFI; listed as Homo sapiens) [compound 142]
144 (YIMEPSIFNTL; listed as Homo sapiens) [compound 144]
147 (SLLEAVSFL; listed as Homo sapiens) [compound 147]
149 (NLLELFVQL; listed as Homo sapiens) [compound 149]
151 (KILQQLVTL; listed as Homo sapiens) [compound 151]
155 (RVANLHFPSV; listed as Homo sapiens) [compound 155]
158 (KLFDVDEDGYI; listed as Homo sapiens) [compound 158]
160 (FLFDEEIEQI; listed as Homo sapiens) [compound 160]
161 (ALLEGVNTV; listed as Homo sapiens) [compound 161]
162 (YQQAQVPSV; listed as Homo sapiens) [compound 162]
163 (ALDEMGDLLQL; listed as Homo sapiens) [compound 163]
164 (ALLPQPKNLTV; listed as Homo sapiens) [compound 164]
165 (SLLDEIRAV; listed as Homo sapiens) [compound 165]
167 (KVLEVTEEFGV; listed as Homo sapiens) [compound 167]
169 (NLPEYLPFV; listed as Homo sapiens) [compound 169]
170 (RLQETLSAA; listed as Homo sapiens) [compound 170]
171 (LLLPLQILL; listed as Homo sapiens) [compound 171]
173 (LLDSASAGLYL; listed as Homo sapiens) [compound 173]
174 (ALAQYLITA; listed as Homo sapiens) [compound 174]
175 (YLFENISQL; listed as Homo sapiens) [compound 175]
179 (KVLNELYTV; listed as Homo sapiens) [compound 179]
181 (LLWAGTAFQV; listed as Homo sapiens) [compound 181]
182 (MLLEAPGIFL; listed as Homo sapiens) [compound 182]
183 (FGLDLVTEL; listed as Homo sapiens) [compound 183]
184 (YLMDINGKMWL; listed as Homo sapiens) [compound 184]
187 (RQISIRGIVGV; listed as Homo sapiens) [compound 187]
188 (GLFPVTPEAV; listed as Homo sapiens) [compound 188]
189 (ALQRKLPYV; listed as Homo sapiens) [compound 189]
190 (FLSSLTETI; listed as Homo sapiens) [compound 190]
192 (KMLDGASFTL; listed as Homo sapiens) [compound 192]
193 (QLLDADGFLNV; listed as Homo sapiens) [compound 193]
194 (ALPLFVITV; listed as Homo sapiens) [compound 194]
195 (GLFADLLPRL; listed as Homo sapiens) [compound 195]
200 (LLFGSVQEV; listed as Homo sapiens) [compound 200]
201 (RLVDYLEGI; listed as Homo sapiens) [compound 201]
202 (ALLDQQGSRWTL; listed as Homo sapiens) [compound 202]
205 (SLYPGTETMGL; listed as Homo sapiens) [compound 205]
206 (VLQEGKLQKLAQL; listed as Homo sapiens) [compound 206]
208 (KISPVTFSV; listed as Homo sapiens) [compound 208]

Peptide exchange, ″+″ (≧10% = +):
153 (FLIANVLYL; listed as Homo sapiens) [compound 153]

Peptide exchange, ″++″ (≧20% = ++):
131 (FVPPVTVFPSL; listed as Homo sapiens) [compound 131]
133 (KVLSNIHTV; listed as Homo sapiens) [compound 133]
140 (YMDAPKAAL; listed as Homo sapiens) [compound 140]
145 (FLATSGTLAGI; listed as Homo sapiens) [compound 145]
146 (SLATAGDGLIEL; listed as Homo sapiens) [compound 146]
148 (ALNPEIVSV; listed as Homo sapiens) [compound 148]
154 (ALDDGTPAL; listed as Homo sapiens) [compound 154]
172 (VLYSYTIITV; listed as Homo sapiens) [compound 172]
176 (YLMEGSYNKVFL; listed as Homo sapiens) [compound 176]
180 (FQIDPHSGLVTV; listed as Homo sapiens) [compound 180]
185 (FLIDDKGYTL; listed as Homo sapiens) [compound 185]
186 (TLFFQQNAL; listed as Homo sapiens) [compound 186]
197 (ALGPEGGRV; listed as Homo sapiens) [compound 197]
204 (KIAENVEEV; listed as Homo sapiens) [compound 204]
207 (GLTSTNAEV; listed as Homo sapiens) [compound 207]
209 (KLIESKHEV; listed as Homo sapiens) [compound 209]
210 (LLLNAVLTV; listed as Homo sapiens) [compound 210]
211 (LLWPGAALL; listed as Homo sapiens) [compound 211]
212 (ALWDQDNLSV; listed as Homo sapiens) [compound 212]

Peptide exchange, ″++++″ (≧75% = ++++):
137 (TLVLTLPTV; listed as Homo sapiens) [compound 137]
159 (GLVGNPLPSV; listed as Homo sapiens) [compound 159]
168 (KILDADIQL; listed as Homo sapiens) [compound 168]
177 (YLLPEEYTSTL; listed as Homo sapiens) [compound 177]
178 (ALTEIAFVV; listed as Homo sapiens) [compound 178]
196 (YLYSVEIKL; listed as Homo sapiens) [compound 196]
